In publication PMC8624084, “Persulfidation of Nitrate Reductase 2 Is Involved in L-Cysteine Desulfhydrase-Regulated Rice Drought Tolerance” (International Journal of Molecular Sciences, 2021):

Legend:
Type in all cases: biochemical, Oryza sativa
[1] = substrate: N[C@@H](CS)C(=O)O; test: purified protein; settings: L-cysteine desulfhydrase (CDes) reaction, method section: 100 mM Tris/HCl pH 8.5, 2.5 mM DTT, 37 °C
[2] = substrate: CC(=O)OC[C@H](N)C(=O)O; test: OAS-TL activity assay, Lineweaver-Burk; settings: OAS-TL (cysteine synthase) side reaction; co-substrate Na2S
[3] = substrate: S; test: OAS-TL activity assay, Lineweaver-Burk; settings: OAS-TL (cysteine synthase) side reaction; co-substrate OAS

B1: OsLCD1 (Oryza sativa Japonica Group) (protein)
chain: MASIPPDDDAAAAAAAGAAENGYGNGKGNGNGPAPRPPPAKRPRSVISAAQIRAEFEHHEAGVARVNNGSFGCCPSSLLDAQARWQRLFIAQPDDFYFHALQPGLRRSRAAVAGLVNAGDVAEVSLVDNATTAAAIVLQHAAWSFAEGRFSRGDAVLMLHYAYGAVKKSIHAYVARAGATVVEVPLPFPVASADAIIAEFRAALDVAKAGGRKVRLAVIDHITSMPSVVIPVKELVAICREEGVDKVFIDAAHSIGQVPVDVRDIGADFYTSNLHKWFFCPPAVAFLHTRKDDPIASQLHHPVVSHEYGNGLPMESGWIGTRDYSAQLVVPESIDFVNRFEGGIEGIRSRNHEKVIEMGKMLAEAWGTFLGTPPELCGSMVMVGLPGCLGVESDDDVMRMRTMLRKDFMVEVPIYYNSRRVEAQEMAKDKNGDAVTGYVRISHQVYNVTEDYEKLRDAVNKLVADGFTSSKLRPSQKQETMA
notes: full length, 482 residues, 55 kDa, N-terminal 6xHis tag (pET-28a(+)), E. coli Rosetta (DE3), Ni-NTA purified
Km [1]: 0.15 ± 0.02 mM
Km [2]: 3.76 ± 0.41 mM
Km [3]: 8.13 ± 0.72 mM
